Here are results for 2 molecules from PMC10920880, “RNA compaction and iterative scanning for small RNA targets by the Hfq chaperone”.

Data set [1] addresses T1, Hfq:R16A (rim mutant) (Escherichia coli K12, UniProt P0A6X3 1-102, R16A). Put plainly: smFRET; sRNA (N13)-Hfq; half as much time on distant site as WT; smFRET: 10 mM Tris-HCl pH 7.5, 50 mM NaCl, 50 mM KCl, 4 mM Trolox, 0.01% Nikkol, 0.8% glucose, RNasin, oxygen scavenger; EMSA: 1x TNK, 5% glycerol, 15 min RT, native 8% PAGE 1x TBE 4 C. To be noted: protein: recombinant; tags: none (untagged); chain copies: 6; label: tether 5' biotin, 3' Cy5; RNA 3' extension paired to DNA tether; 5' hairpin. (In general: Mobility shift assays separate free from complexed probe on a gel.)

Data set [2] addresses T1, Hfq:R16A (rim mutant). Kind of data set: smFRET; 5 nM R16A, less compaction E~0.43; smFRET: 10 mM Tris-HCl pH 7.5, 50 mM NaCl, 50 mM KCl, 4 mM Trolox, 0.01% Nikkol, 0.8% glucose, RNasin, oxygen scavenger; EMSA: 1x TNK, 5% glycerol, 15 min RT, native 8% PAGE 1x TBE 4 C. Conditions: protein: recombinant; tags: none (untagged); chain copies: 6; label: internal Cy5; tether 5' biotin, 3' Cy3 (unlabeled tether for sRNA assays); RNA 3' extension paired to DNA tether; 5' hairpin.

Data set [3] has as its target Hfq:TM (triple rim mutant) (Escherichia coli K12, UniProt P0A6X3 1-102, R16A;R17A;R19D). Kind of data set: smFRET; 5 nM TM, less compaction E~0.37; smFRET: 10 mM Tris-HCl pH 7.5, 50 mM NaCl, 50 mM KCl, 4 mM Trolox, 0.01% Nikkol, 0.8% glucose, RNasin, oxygen scavenger; EMSA: 1x TNK, 5% glycerol, 15 min RT, native 8% PAGE 1x TBE 4 C. Conditions: protein: recombinant; tags: none (untagged); chain copies: 6; label: internal Cy5; tether 5' biotin, 3' Cy3 (unlabeled tether for sRNA assays); RNA 3' extension paired to DNA tether; 5' hairpin.

The target in data set [4] is Hfq:Y25D (distal face mutant) (Escherichia coli K12, UniProt P0A6X3 1-102, Y25D). Kind of data set: smFRET; 5 nM Y25D, compaction E~0.75; smFRET: 10 mM Tris-HCl pH 7.5, 50 mM NaCl, 50 mM KCl, 4 mM Trolox, 0.01% Nikkol, 0.8% glucose, RNasin, oxygen scavenger; EMSA: 1x TNK, 5% glycerol, 15 min RT, native 8% PAGE 1x TBE 4 C. Conditions: protein: recombinant; tags: none (untagged); chain copies: 6; label: internal Cy5; tether 5' biotin, 3' Cy3 (unlabeled tether for sRNA assays); RNA 3' extension paired to DNA tether; 5' hairpin.

B1: (AAC)4-S6-N35-S6 tandem mRNA on DNA tether (mixed)
RNA: GGACUCUAUCGAGUCCAACAACAACAACAGACCUCUCUACCAUCACCUAAACUUUACUCUACCAUCACCAGACCUCGCGCCCAGGACGACACACUUUGGACAGGACACACAGGACACAGG
DNA: CCTGTGTCCTGTGTGTCCTGTCCAAAGTGTGTCGTCC
In the case of B1, the binding result with Hfq:R16A (rim mutant) [1] is reported as “binds”.

B2: (AAC)6-Cy5-N35-S6 mRNA on DNA tether (mixed)
RNA: GGACUCUAUCGAGUCCAACAACAACAACAACAACCCCUGCAUCACCUAAACUUUACUCUACCAUCACCAGACCUCGCGCCCAGGACGACACACUUUGGACAGGACACACAGGACACAGG
DNA: B1 DNA
modifications: internal Cy5 after nt 35
Consider B2, for which the binding result (with Hfq:R16A (rim mutant) [2]; in data set [3]; in data set [4]) was “binds” throughout.
